# From patent US12605469B2, “Tumor specific antibody conjugates and uses therefor” (The University of North Carolina at Charlotte, priority 2019, dated 2026)
# B1: TAB-004: mAb of the IgG isotype produced by hybridoma ATCC PTA-11550; binds tumor-specific epitope of human MUC1 (antibody, V domains shown)
# VH: EVQLQQSGGERATPGASVKMSCKTSGYTFTNYWMHWVKQRPGQGLEWIGYINPSSGYTQYNQKFKDKATLTADKSSSTAYIQLSSLTSEDSAVYYCSTYYGDYLFPYWGQGTLVTVSA
# VL: DVLMTQTPLSLPVSLGDQASISCRSSQDIVYGNGNTYLEWYLQKPGQSPKLLIYKVSNRFSGVPDRFSGSGSGTDFTLKISRVEAEDLGVYYCFQGSHVPYTFGGGTKLEIKR
# Key:
# KCM tumor cells = test: NK cell specific lysis of tumor cells; assay type: cell-based, mouse; conditions: various E:T ratios
# Text: FIGS. 4A and 4B are graphs showing that an exemplary antibody of the presently disclosed subject matter (TAB-004) enhanced the cytotoxicity of Natural Killer (NK) cells to kill target tumor cells.
# (§1) The TAB-004 antibody alone or conjugated to CpG ODN bound to a tumor cell line (referred to herein as the “KCM” cell line; see FIG. 3) generated from the triple transgenic PDA.MUC1.Tg mice.
# KCM pancreatic cell line = test: binding to KCM pancreatic cell line; assay type: cell-based, mouse
# Text: FIG. 3 is a schematic (upper left panel) showing an approach for creating a triple transgenic mouse line that expresses the Cre recombinase throughout the pancreas, a mutated K-ras oncogene polypeptide, and a human MUC1 polypeptide. This mouse develops pancreatic adenocarcinoma, cells of which were used to generate the primary tumor cell line KCM (lower panel). The KCM cell line was used to test the binding of an exemplary antibody of the presently disclosed subject matter (denoted in the Figure as “TAB” and in the instant disclosure as “TAB-004”) either alone or conjugated to CpG oligodeoxynucleotides (CpG ODN).
# as §1
# mutated K-ras = target: T1, mutated K-ras (Mus musculus, UniProt P32883, G12D); test: staining of tumor tissues expressing the K-ras mutation but not human MUC1; assay type: binding
# T1 construct: from tissue; host or cells: tumour tissue expressing the K-ras mutation but not human MUC1
# shed MUC1 = target: T2, shed MUC1 (Homo sapiens, UniProt P15941); test: enzyme immunoassay (EIA) for shed MUC1 in plasma
# T2 construct: from tissue; host or cells: human plasma, diluted 1:2 and 1:10
# Description: To that end, the ability of TAB-004 to detect levels of shed MUC1 in the plasma of patients was compared to the performances of these antibodies in plasma samples. An enzyme immunoassay (EIA) has been optimized using the TAB-004 antibody to capture and detect levels of shed MUC1 present in circulation. Briefly, a 96-well ELISA plate was coated with 100 μl of TAB-004 antibody at 50 μg/mL in PBS and incubated overnight at 4° C. Following incubation, excess TAB-004 capture antibody was removed from the plate. The plate was blocked with 200 μl of 1% dry milk in PBS to avoid non-specific binding and incubated for 1 hour at 4° C. The plates were washed extensively (3 times) with 250 μl PBS containing 0.05% (v/v) TWEEN®-20 using an ELISA plate washer. A MUC1 standard using a 25-mer polypeptide preparation from MUC1 TR was prepared ranging from 0-2000 U/ml. The test plasma was diluted 1:2, and 1:10 in 0.1% milk in PBS, and 100 μl was added to the appropriate wells in triplicate, and the plates were incubated for 2 hours at 37° C.
# Plates were then washed and 100 μl of a polyclonal rabbit anti-MUC1 antibody (Genway) were added at 1:300,000 dilution in 0.1% milk in PBS to each well, and the plate was incubated for 1 hour at 37° C. The polyclonal antibody was washed from the wells and horse radish peroxidase-labeled goat anti-rabbit IgG was added at a 1:1,000 dilution in 0.1% milk in PBS and incubated at 37° C. for 1 hour. After washing the plates, 100 μL of a solution consisting of peroxidase substrate (TMB) was added to the wells, and the plates incubated at room temperature for 30 minutes in the dark. The reaction was stopped by the addition of 25 μl of 4.0 N sulfuric acid, and the optical density read at a wavelength of 450 nm using a SPECTRA-MAX 250 spectrophotometer. Standard curves were generated with regression analyses to determine concentrations of the unknown samples.
# Arbitrary units (U)/ml were chosen based on an initial reference standard of MUC1. A linear range was determined to be 50-800 units/ml of MUC1 antigen. […]
# [1] = system: human breast cancer cell lines; test: flow cytometry of breast cancer cell lines with TAB-004 conjugated to Cy7; assay type: cell-based; conditions: Cy7 conjugate
# Description: FIG. 13 is a series of plots of flow cytometric analyses of TNBC cell lines stained with a Cy7-conjugated TAB-004 monoclonal antibody (1 μg/sample). Compared to isotype control (solid trace in each panel; red lines in color photo), all cell lines expressed high to moderate levels of tMUC. MDA-MB-231 is mesenchymal in phenotype and loses MUC1 in vitro while Hs578T is a mesenchymal stem-like carcinosarcoma that has low expression of tMUC (depicted with dashed lines in each panel).
# A 45-panel human breast cancer cell lines were tested for tMUC expression with TAB-004 conjugated to Cy7 and flow cytometry. […] In particular, apart from those with a mesenchymal phenotype, all cell lines expressed high levels of tMUC.
molecule,measurement,setting,value
B1,specific lysis of tumor cells by NK cells,KCM tumor cells,enhanced specific lysis of KCM tumor cells
same,binding to KCM cell line,KCM pancreatic cell line,bound to the KCM pancreatic cell line with equal affinity
same,cross reactivity with mutated K-ras,mutated K-ras,cross reacted with mutated K-ras
same,false negatives / positivity of cancer patient plasma,shed MUC1; 36 breast cancer plasma samples for CA15-3,All cancer patient plasma was positive
same,stage 2 and stage 3 pancreatic cancer patients above the normal range,shed MUC1; n=5 per stage,all stage 2 and stage 3 patients
same,false positive results in normal patients,"shed MUC1; n=12 normal, cutoff <40 U/ml TAB-004, <31 U/ml CA15-3",no false positives
same,staining of breast cancer cell line subtypes,[1]; 45-panel,stained strongly
same,staining of MDA-MB-231 cell line,[1],stained weakly
